Assay results reported in the supplement of paper PMC10567573.

B1: TSN (parent)
chain: FLAAEQDIREEIRKVVQSLEQTAR

Variants of: B1
Test: protein stability index of a GFP-peptide fusion (GPS, HEK-293T) (PSI 1-6); higher = more stable
Details: c terminus: a fixed tail appended
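Note: lentivirally expressed fusions sorted by FACS into six bins by GFP to DsRed ratio, PSI derived from sequencing read proportions per bin multiplied by bin number.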

Protein stability index, by site and new letter:
T22: H 1.67, C 1.84, I 2.61, Y 1.81, S 1.98, W 2.32, K 1.95, P 2.16, V 2.55, F 2.42, L 3.07, Q 2.1, A 2.38, D 2.5, G 1.24, N 2.36, E 2.48, R 2.99, M 2.57
E10: M 1.88, L 1.96, T 2.83, C 2.47, V 2.39, N 2.12, H 2.5, A 2.11, G 2.92, P 3.21, R 2.06, S 2.33, D 1.63, K 2.15, F 1.35, Y 1.96, I 1.53, Q 1.85, W 2.08
V16: N 3.03, C 2.13, I 1.86, M 1.73, K 2.38, H 2.26, W 1.74, L 2.2, P 3.24, R 2.15, G 3.36, T 1.68, S 1.93, A 2.3, D 3.78, E 2.21, Y 2.83, F 2.77, Q 2.35
E20: A 3.05, F 2.73, T 2.3, I 2.05, L 2.13, R 2.44, H 2.55, C 2.57, M 2.33, S 2.57, Q 2.35, W 2.64, Y 2.07, V 2.29, G 2.28, N 2.08, D 2.77, K 2.29, P 3.47
I8: D 3.44, T 2.78, C 2.56, A 3.02, Y 2.42, E 3.64, R 3.15, K 2.56, V 2.17, P 3.41, L 2.02, Q 3.16, W 2.65, G 4.12, H 3.17, F 2.57, S 3.33, N 4.12, M 1.73
R9: Q 2.04, N 2.28, K 2.69, G 3.12, E 1.69, D 2.31, S 2.26, A 1.48, F 2.4, V 1.75, C 1.43, T 2.06, H 1.49, Y 2.29, W 1.64, L 2.26, I 1.84, P 3.1, M 2.11
Q6: Y 2.09, V 1.79, W 2.75
S18: I 1.92, T 2.18, R 2.27, L 2.22, H 1.71, Y 1.57, F 1.39, W 1.62, M 2.22, G 1.7, E 2.54, A 1.67, V 2.52, Q 2.24, C 2.28, N 2.25, P 2.3, K 2.35, D 2.31
Q21: M 1.68, W 1.87, A 2.14, P 2.41, Y 1.64, F 1.81, D 1.78, S 1.9, G 2.08, V 1.5, E 1.9, T 1.92, L 1.91, H 1.8, C 2.01, K 1.78, R 2.15, N 1.83, I 2.27
I12: D 4.64, Q 4.06, K 3.98, V 2.1, H 4.29, R 4.3, M 1.94, T 3.07, E 4.52, Y 3.2, C 1.58, W 2.89, F 2.89, L 2.63, S 2.59, A 2.32, N 4.68, P 4.45, G 3.81
R13: K 1.89, T 2.82, N 2.16, P 3.64, G 1.94, D 1.84, V 1.66, F 1.55, Y 2.73, M 2.07, H 2.7, A 1.94, Q 2.14, W 2.18, C 1.94, S 2.12, L 1.83, I 1.43, E 1.89
D7: N 2.05, V 2.13, L 3.27, I 2.93, H 2.78, T 1.75, R 2.35, E 1.89, C 2.28, Q 1.3, G 2.22, M 1.73, F 2.52, Y 2.44, A 2.18, P 2.22, K 1.51, S 1.79, W 2.21
K14: I 1.39, T 2.25, S 2.07, A 2.08, C 2.07, H 1.98, L 2.13, N 2.52, Y 2.3, V 1.83, R 3.3, W 1.77, E 2.36, G 2.03, Q 2.05, F 1.48, D 3.41, M 2.24, P 3.76
E11: P 3.15, Q 2.29, M 1.9, A 2.02, G 2.68, S 2.47, C 2.21, R 2.89, N 3.58, L 2.19, F 1.59, I 1.72, H 2.58, D 2.77, V 1.95, Y 1.76, T 2.43, W 1.59, K 2.65
L19: I 2.41, R 3.38, P 3.9, H 2.96, C 4.16, K 3.44, D 3.6, Q 3.39, W 3.12, Y 3.01, F 2.14, M 2.33, T 3.76, V 3.02, G 3.51, N 3.8, E 4.16, A 3.72, S 3.33
Q17: W 1.72, I 2.06, H 1.98, Y 1.6, L 2.42, M 2.6, E 1.77, C 2.3, K 2.52, P 3.32, N 2.15, S 2.78, A 2.47, G 1.92, T 1.84, V 1.87, R 2.02, F 1.58, D 1.78
V15: E 4.34, H 2.8, D 3.62, Q 3.54, L 2.48, R 3.31, W 2.4, K 3.37, I 2.19, A 3.48, M 2.17, S 3.07, Y 3.44, P 3, T 2.61, F 2.96, N 3.76, C 2.56, G 3.29
A23: P 2.15, T 1.76, W 2.1, D 1.57, K 1.75, L 2.34, Y 1.88, M 1.87, F 2.19, V 2.13, C 1.99, I 2.52, H 2.11, E 2.68, G 2.21, N 1.8, R 1.87, Q 1.96, S 1.8
R24: E 2.13, A 2.26, C 1.82, G 2.18, I 3.12, F 2.07, D 2.4, H 1.47
